T1: SB transposase N123 (N-terminal DNA-binding domain, residues 1-123) (synthetic (salmonid consensus))
T1 chain: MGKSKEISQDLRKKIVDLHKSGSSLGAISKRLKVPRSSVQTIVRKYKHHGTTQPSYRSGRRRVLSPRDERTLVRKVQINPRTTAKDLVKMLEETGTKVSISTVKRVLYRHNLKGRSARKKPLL

B1: salmonid internal transposase-binding site (dsDNA)
DNA 1: CCAGTGGGTCAGAAGTTTACATACACTAAG
DNA 2: CTTAGTGTATGTAAACTTCTGACCCACTGG
B2: salmonid outer transposase-binding site (dsDNA)
DNA 1: GTTGAAGTCGGAAGTTTACATACACTTAGG
DNA 2: CCTAAGTGTATGTAAACTTCCGACTTCAAC

Target: T1, SB transposase N123 (N-terminal …)
Test: footprint; DNase I, 30-bp protected region within left IR probe
Settings: tags: C-terminal His tag (pET21a)
Procedure: In addition to the NLS function, N123 also contains the specific DNA-binding domain of SB, as tested in a mobility-shift assay (FIG. 3B). A 300 bp EcoRI/HindIII fragment of pT comprising the left inverted repeat of the element was end-labeled using [α³²P]dCTP and Klenow. Nucleoprotein complexes were formed in 20 mM HEPES (pH 7.5), 0.1 mM EDTA, 0.1 mg/ml BSA, 150 mM NaCl, 1 mM DTT in a total volume of 10 μl. Reactions contained 100 pg labeled probe, 2 μg poly[dI][dC] and 1.5 μl N123. After 15 min incubation on ice, 5 μl of loading dye containing 50% glycerol and bromophenol blue was added and the samples loaded onto a 5% polyacrylamide gel (Ausubel). DNaseI footprinting was done using a kit from BRL according to the recommendations of the manufacturer. […]
The number of the deoxyribonucleoprotein complexes detected by the mobility-shift assay at increasingly higher N123 concentrations indicated two protein molecules bound per IR (FIG. 3B, right panel), consistent with either two binding sites for transposase within the IR or a transposase dimer bound to a single site. Transposase-binding sites were further analyzed and mapped in a DNasel footprinting experiment. […]

Binder | binding result
B1 | binds
B2 | binds

Reference: US20030154500, “Nucleic acid transfer vector for the introduction of nucleic acid into the DNA of a cell” (Regents of the University of Minnesota, published 2003)
